What was measured:
rhC1s [1] = biological target: T1, rhC1s (human, UniProt P09871 16-688); experiment: inhibition of rhC1s cleavage of a colorimetric peptide substrate, average OD; concentrations from mass spec sizes; C is the midpoint of the 4-parameter fit [panel A]
T1 construct: Enzyme of the colorimetric peptide cleavage assay; Human is read from the printed label 'rhC1s'
T1 sequence (looked up): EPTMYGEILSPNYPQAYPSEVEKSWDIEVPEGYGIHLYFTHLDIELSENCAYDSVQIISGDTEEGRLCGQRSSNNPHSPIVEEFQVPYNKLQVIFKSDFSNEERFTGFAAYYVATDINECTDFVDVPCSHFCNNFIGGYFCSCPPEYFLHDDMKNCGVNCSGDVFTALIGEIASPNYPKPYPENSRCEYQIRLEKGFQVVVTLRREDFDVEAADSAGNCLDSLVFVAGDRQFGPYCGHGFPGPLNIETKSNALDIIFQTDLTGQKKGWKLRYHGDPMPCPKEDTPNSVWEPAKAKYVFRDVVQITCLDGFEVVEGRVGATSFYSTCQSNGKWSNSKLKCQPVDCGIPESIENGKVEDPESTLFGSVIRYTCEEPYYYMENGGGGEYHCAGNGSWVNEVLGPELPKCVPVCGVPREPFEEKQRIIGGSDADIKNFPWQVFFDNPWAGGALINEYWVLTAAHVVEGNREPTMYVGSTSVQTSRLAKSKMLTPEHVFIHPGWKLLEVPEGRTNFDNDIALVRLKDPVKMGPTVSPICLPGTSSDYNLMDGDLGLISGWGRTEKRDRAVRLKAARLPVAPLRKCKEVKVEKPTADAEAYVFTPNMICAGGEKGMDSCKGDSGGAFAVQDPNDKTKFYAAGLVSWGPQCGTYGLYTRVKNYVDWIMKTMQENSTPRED

rhC1s [2] = biological target: T1, rhC1s; experiment: inhibition of rhC1s cleavage of a colorimetric peptide substrate, average OD; concentrations from gel estimated sizes; C is the midpoint of the 4-parameter fit [panel B]
rhC1s [3] = biological target: T1, rhC1s; experiment: inhibition of C1s cleavage of a colorimetric peptide substrate, mean OD value; C is the midpoint of the 4-parameter fit
biotin-C1s = biological target: T2, biotin-C1s; experiment: functional ELISA of the C1s/C1-INH complex: diluted C1-INH with biotin-C1s, captured on a streptavidin plate, anti-C1-INH-HRP, OD450; C is the midpoint of the 4-parameter fit
T2 construct: Used in the functional ELISA that measures the C1s/C1-INH complex
T2 sequence (P09871 16-688, species assumed, looked up): T1 sequence (looked up)
Method: This method was used to test the effector dead Fc constructs made for PK studies FIG. 8. The ELISA protocol was as follows: [0334] 60 μL diluted C1-INH+12 μL biotin-C1s [0335] 30 min incubation at RT [0336] Transfer 50 μL of complexes to streptavidin coated plate [0337] 10 min incubation at RT, wash 5× [0338] Add 50 μL of anti-C1-INH-HRP [0339] 60 min incubation at RT, wash 5× [0340] Add 100 μL of TMB substrate [0341] 15 minute incubation at RT [0342] […] Read at OD450

B1: R&D rhC1inh (other, human, UniProt P05155 23-500, looked up)
single chain: NPNATSSSSQDPESLQDRGEGKVATTVISKMLFVEPILEVSSLPTTNSTTNSATKITANTTDEPTTQPTTEPTTQPTIQPTQPTTQLPTDSPTQPTTGSFCPGPVTLCSDLESHSTEAVLGDALVDFSLKLYHAFSAMKKVETNMAFSPFSIASLLTQVLLGAGENTKTNLESILSYPKDFTCVHQALKGFTTKGVTSVSQIFHSPDLAIRDTFVNASRTLYSSSPRVLSNNSDANLELINTWVAKNTNNKISRLLDSLPSDTRLVLLNAIYLSAKWKTTFDPKKTRMEPFHFKNSVIKVPMMNSKKYPVAHFIDQTLKAKVGQLQLSHNLSLVILVPQNLKHRLEDMEQALSPSVFKAIMEKLEMSKFQPTLLTLPRIKVTTSQDMLSIMEKLEFFDFSYDLNLCGLTEDPDLQVSAMQHQTVLELTETGVEAAAASAISVARTLLVFEVQQPFLFVLWDQQHKFPVFMGRVYDPRA
notes: commercial R&D Systems preparation; also called hSerpin G1 (R&D Systems)
IC50 (rhC1s [1]): 1.76 nM | IC50 (rhC1s [2]): 1.76 nM

B2: plasma-derived C1-INH (other)
chain: B1 single chain
notes: Purified from plasma and glycosylated
IC50 (rhC1s [3]): 1.83 nM | EC50 (biotin-C1s): 4.58 nM | IC50 (rhC1s [1]): 2.01 nM | IC50 (rhC1s [2]): 2.01 nM

B3: recombinant C1-INH (other, UniProt P05155 23-500, looked up)
chain: B1 single chain
IC50 (rhC1s [3]): 1.14 nM
